Tests used:
[1] = molecular target: T1, SARS-CoV-2 바이러스 표면 단백질 (RBD) (SARS-CoV-2, UniProt P0DTC2 319-541); assay: BLI (Octet), Full IgG
[2] = molecular target: T1, SARS-CoV-2 바이러스 표면 단백질 (RBD); assay: BLI (Octet), Full IgG culture supernatant

B1: No. 32 항체 (Full IgG) (antibody, V domains shown)
VH: EVQLVQSGGGLIQPGGSLRLSCAASEFIVSSNYMTWVRQAPGKGLEWVSIIYPGGSTYYADSVKGRFTISRDNSKNTLYLRMNSLRAEDTAVYYCARDLPLTGTTLDYWGQGTLVTVSS
VL: not shown
B1 showed a Kd [1] of 305 pM, a koff [1] of 0.000193 s⁻¹ and a kon [1] of 633000 M⁻¹ s⁻¹. For the same binder, the Kd [2] was 147 pM.

Source: patent KR20220013302A (dated 2022)
